We go through six molecules from patent US20170065702A1 (CANGENE, published 2017).

One assay concerns the target MARV Angola GPe[change] (Marburg virus, Angola strain, UniProt Q1PD50 19-636). Put plainly: cross reactivity with GPeΔmuc, summary table.
For another assay, the target named is MARV Musoke GPe[change] (Marburg virus, Musoke strain, UniProt P35253 19-636). Put plainly: cross reactivity with GPeΔmuc, summary table.

B1: CAN30G5 (antibody, V domains shown)
VH: EVQLVESGGGLVQPKGSLKLSCAASGFAFNSYAMHWVCQAPGKGLEWVARIRIKSGNYATSYAGSVTDRFTVSRDDSQNLFYLQMNNLKTEDTAMYYCVREWEGAMDYWGQGTSVTVSS
VL: DIVLTQSPLSLPVSLGDQASISCRSSQSLVHSNGNTYLHWYLQKPGQSPNLLIYKVSNRFSGVPDRFSGSGSGTDFTLKISRVEAEDLGVYFCSQSTHVPWTFGGGTKLEIK
For the molecule B1, the binding result with MARV Angola GPe[change] and in the assay with MARV Musoke GPe[change] was “binds” throughout.

B2: CAN40G1 (antibody, V domains shown)
VH: EVQLQQSGPELVKPGASVKISCRTSGYTFTEYTIHWVKQSRGKSLEWIGGINPNHGGTLYNQKFKVKATLTVDKSSSTAYMELRSLTSEDSAVYYCARFTYDYWGQGTTLTVSS
VL: DIVLTQSPASLAVSLGQRASISCKASQSVDHDGDSYMNWYQQKPGQPPKLLIYATSNLESGIPARFSGSGSGTDFTLNIHPVEEEDAATYYCQQSYEVPLTFGAGTKLELK
In the case of B2, the binding result in the assay with MARV Angola GPe[change] and with MARV Musoke GPe[change] was “binds” each time.

B3: CAN30G1 (antibody, V domains shown)
VH: QIQLVQSGPELKKPGETVKISCKASGYTFTNYGMNWVKQAPGKGLKWMGWINTYTGKPTYVDDFKGRFAFSLETSANTAYLQINNLKNEDTATYFCESGGYDEDYWGQGTTLTVSS
VL: ENVLTQSPAIMSASPGEKVTMTCSASSSVTYMHWYQQKSSTSPKLWIYDTSKLASGVPGRFSGSGSGNSYSLTISSMEAEDVATYYCFQGSGYPYTFGGGTKLEIK
B3: the binding result with MARV Angola GPe[change] and in the assay with MARV Musoke GPe[change] was “binds” each time.

B4: CAN54G2 (antibody, V domains shown)
VH: QVQLQQSGTELVRPGTSVKISCKASGYDFTNFWLGWIKQRPGHGLEWIGDIYPGGDNTYYNEKFKGKVTLTADKSSNTAYMQFSSLTSEDSAVYFCFMILYTLDYWGQGTSVTVSS
VL: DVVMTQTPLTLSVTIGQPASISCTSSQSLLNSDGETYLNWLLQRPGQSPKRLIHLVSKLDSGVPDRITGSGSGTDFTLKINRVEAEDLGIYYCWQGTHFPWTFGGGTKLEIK
For the molecule B4, the binding result in the assay with MARV Angola GPe[change] and with MARV Musoke GPe[change] was “binds” in each case.

B5: CAN30G3 (antibody, V domains shown)
VH: QVQLKESGPGLVAPSQSLSITCTVSGFSLTDYGITWIRQPPGKGLEWLGVIWGGGSAYYNLVLKSRLSISKDNSKSQVFLKMNSLQTDDTAMYYCAKHRTLITTAMDYWGQGISVTVSS
VL: DVLMTQTPLSLPVSLGDQASISCRSSQNIVHSNGNTYLEWYLQKSGQSPKLLIYKVSNRFSGVPDRFSGSGSGTDFTLKISRVEAEDLGVYYCFQGSHFPWTFGGGTKLEIK
B5: the binding result in the assay with MARV Angola GPe[change] and in the assay with MARV Musoke GPe[change] was “binds” each time.

B6: CAN30G4 (antibody, V domains shown)
VH: EVKLVESGGGLVKSGGSLKLSCAVSGFTFSTYAMSWVRQIPEKRLEWVATISNGGSYIYYSDSVKGRFTISRDNAKNTLYLQMSSLRSEDTAMYYCARHRESYRYDWFAYWGQGTLVTVSA
VL: DVLMTQTPLSLPVSLGDQASISCRSSQNIVHSDGNTYLEWYLQKPGQSPKLLIYKFSNRFSGVPDRFSGSGSGTDFTLKISRVEAEDLGVYYCFQGSHVPPTFGAGTKLELK
For B6, the binding result in the assay with MARV Angola GPe[change] and with MARV Musoke GPe[change] was “binds” in each case.
